Results as given in publication PMC8563363.

Experiments:
Experiment in all cases: EMSA
[1] = biological target: T1, deltaN-STAG1/SCC1(int) (Homo sapiens, UniProt Q8WVM7;O60216 71-1258;281-420)
T1 sequence 1: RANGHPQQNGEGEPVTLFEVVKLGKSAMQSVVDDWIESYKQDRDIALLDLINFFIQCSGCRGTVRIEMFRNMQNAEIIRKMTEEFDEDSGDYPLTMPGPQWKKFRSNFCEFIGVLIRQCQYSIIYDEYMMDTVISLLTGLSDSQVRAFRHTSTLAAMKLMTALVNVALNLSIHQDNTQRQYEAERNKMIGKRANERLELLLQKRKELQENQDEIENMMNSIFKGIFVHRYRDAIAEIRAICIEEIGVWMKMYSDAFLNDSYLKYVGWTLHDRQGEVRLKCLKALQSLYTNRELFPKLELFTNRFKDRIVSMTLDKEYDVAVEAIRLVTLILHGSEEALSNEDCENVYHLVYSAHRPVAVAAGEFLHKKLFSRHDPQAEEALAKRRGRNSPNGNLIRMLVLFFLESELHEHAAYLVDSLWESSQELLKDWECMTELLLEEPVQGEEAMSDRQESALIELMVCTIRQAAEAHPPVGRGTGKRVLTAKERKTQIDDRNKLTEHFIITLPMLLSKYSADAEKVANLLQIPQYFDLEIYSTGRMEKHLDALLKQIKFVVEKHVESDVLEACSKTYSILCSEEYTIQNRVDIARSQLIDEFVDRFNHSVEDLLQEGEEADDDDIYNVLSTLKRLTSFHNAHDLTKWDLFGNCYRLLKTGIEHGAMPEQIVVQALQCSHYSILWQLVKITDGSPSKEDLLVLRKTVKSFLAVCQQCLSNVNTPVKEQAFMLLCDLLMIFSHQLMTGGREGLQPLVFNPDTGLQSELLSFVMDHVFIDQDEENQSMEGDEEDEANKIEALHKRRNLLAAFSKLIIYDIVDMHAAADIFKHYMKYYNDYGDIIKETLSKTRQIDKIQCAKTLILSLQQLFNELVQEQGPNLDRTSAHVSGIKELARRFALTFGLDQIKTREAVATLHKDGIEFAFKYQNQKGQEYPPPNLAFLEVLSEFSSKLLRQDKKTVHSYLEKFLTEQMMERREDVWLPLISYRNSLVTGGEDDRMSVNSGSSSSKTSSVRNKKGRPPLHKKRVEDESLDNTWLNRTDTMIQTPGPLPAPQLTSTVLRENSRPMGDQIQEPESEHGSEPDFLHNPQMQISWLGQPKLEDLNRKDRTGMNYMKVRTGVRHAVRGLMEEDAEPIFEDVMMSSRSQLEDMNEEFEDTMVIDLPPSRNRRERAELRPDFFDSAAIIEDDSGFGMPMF
T1 sequence 2: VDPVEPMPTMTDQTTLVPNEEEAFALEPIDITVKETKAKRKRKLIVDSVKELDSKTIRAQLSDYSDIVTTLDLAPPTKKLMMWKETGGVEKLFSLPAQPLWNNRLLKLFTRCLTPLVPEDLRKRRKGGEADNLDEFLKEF

[2] = biological target: hinge (SMC1-SMC3) (Homo sapiens, UniProt Q9UQE7;Q14683 484-696;461-685)
Sequence of hinge (SMC1-SMC3) (Q9UQE7 484-696, chain 1 of 2): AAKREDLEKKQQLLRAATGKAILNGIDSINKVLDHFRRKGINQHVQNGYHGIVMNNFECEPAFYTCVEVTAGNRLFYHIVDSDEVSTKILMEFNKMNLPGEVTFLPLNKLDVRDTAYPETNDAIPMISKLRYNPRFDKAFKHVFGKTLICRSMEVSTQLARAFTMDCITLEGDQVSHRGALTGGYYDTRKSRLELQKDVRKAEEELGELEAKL
Sequence of hinge (SMC1-SMC3) (Q14683 461-685, chain 2 of 2): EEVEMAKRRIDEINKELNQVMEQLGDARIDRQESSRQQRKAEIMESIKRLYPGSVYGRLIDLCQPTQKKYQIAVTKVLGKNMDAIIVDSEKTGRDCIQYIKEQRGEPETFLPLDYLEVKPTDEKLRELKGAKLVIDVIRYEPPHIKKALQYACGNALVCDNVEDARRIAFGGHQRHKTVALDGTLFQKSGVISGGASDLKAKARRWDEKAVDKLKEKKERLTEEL

[3] = biological target: deltaN-NIPBL2A (Homo sapiens, UniProt Q6KC79 1-21+1041-2804, R1867A;K1870A;internal_change)
[4] = biological target: T2, SMC3 head (Halo-SMC3HD-SCC1(Nt)) (Homo sapiens, UniProt Q9UQE7 1-251+=GGGGG+956-1216+=[…]+O60216:2-75, internal_change)
T2 sequence: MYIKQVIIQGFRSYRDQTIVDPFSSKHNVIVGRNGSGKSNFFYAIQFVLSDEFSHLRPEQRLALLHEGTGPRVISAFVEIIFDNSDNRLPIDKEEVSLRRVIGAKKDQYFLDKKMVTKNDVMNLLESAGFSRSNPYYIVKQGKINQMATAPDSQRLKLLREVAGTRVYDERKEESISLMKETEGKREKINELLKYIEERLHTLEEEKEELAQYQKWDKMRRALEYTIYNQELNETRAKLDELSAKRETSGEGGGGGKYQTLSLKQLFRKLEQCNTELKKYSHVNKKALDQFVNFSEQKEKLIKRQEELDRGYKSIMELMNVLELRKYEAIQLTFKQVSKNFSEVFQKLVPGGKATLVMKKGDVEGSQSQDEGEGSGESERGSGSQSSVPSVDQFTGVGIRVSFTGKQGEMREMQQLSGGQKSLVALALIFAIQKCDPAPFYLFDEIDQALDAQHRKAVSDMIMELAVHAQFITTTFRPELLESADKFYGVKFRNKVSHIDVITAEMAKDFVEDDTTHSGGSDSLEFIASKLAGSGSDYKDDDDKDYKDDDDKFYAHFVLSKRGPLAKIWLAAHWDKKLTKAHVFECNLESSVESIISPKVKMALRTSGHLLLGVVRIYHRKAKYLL

[5] = biological target: T3, SMC1 head 4E (Homo sapiens, UniProt Q14683;O60216 1-200+=GGGGG+1030-1233;531-631, K52E;R57E;K59E;R62E;internal_change)
T3 sequence 1: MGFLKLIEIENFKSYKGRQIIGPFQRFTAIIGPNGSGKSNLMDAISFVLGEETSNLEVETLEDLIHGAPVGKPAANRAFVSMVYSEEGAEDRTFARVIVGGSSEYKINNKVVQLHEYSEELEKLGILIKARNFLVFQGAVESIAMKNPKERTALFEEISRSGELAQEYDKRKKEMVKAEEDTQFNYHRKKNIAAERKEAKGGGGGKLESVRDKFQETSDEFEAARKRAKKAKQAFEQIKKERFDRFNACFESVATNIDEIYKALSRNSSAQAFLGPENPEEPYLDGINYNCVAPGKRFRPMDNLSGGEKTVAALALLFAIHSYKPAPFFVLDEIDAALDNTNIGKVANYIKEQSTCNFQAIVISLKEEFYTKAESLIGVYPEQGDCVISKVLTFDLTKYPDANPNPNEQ
T3 sequence 2: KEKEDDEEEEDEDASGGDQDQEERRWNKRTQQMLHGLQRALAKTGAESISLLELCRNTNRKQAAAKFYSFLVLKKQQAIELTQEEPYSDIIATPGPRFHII

B1: 40 bp dsDNA EMSA probe (dsDNA)
DNA 1: GCGGGTAATCCAGAGCCAGACGAGCACTACGAACAACTAA
DNA 2: TTAGTTGTTCGTAGTGCTCGTCTGGCTCTGGATTACCCGC
binding result [1]: binds
binding result [2]: binds
binding result [3]: no binding
binding result [4]: binds
binding result [5]: no binding
